Test results reported in the DeepSol protein solubility set.

Test: soluble on expression in E. coli; label from the status in PepcDB or PDB records

Sequence | soluble on expression in E. coli
MGSDKIHHHHHHAACSNDDEPGIDKGGQKGELIDAISIAFTSSSAPATRADKGEIEGVGTENNVYVAYLFAKENDPQHEGAKVGDWTVKRVAGDSNTDDKDVAAAIGEGDVATPGTKKNMCTFNGVRQGDSVYVVVNDPQMTLATAQTLAHQGDKSEAAIRAYISNLSKSYLNDLTVTKDGTQGKKYIMAGVSAIPTNPNIPNGSTVKVSIPLNRELAKVFFNASVTTNPVYEAYGKMAIKDAVWENPTGTKDPDGIVVVRIPRRVSPFTAQARDWYFPQSADATAKDWDVEGWLKAFAGESQSVPGTAEVPGTTLALNKGEYNADAKEYRLTWVVGEKALADGATPAAASMVYVKSDKLYSPYFYVTPNYADNAGCATVVVTQATYIGANTLLEPTITEQMLSEALDDSDFQTATSTDGSVKYDKLAADFWNTGANVAALVAFLEKNATYKLALRGETDPSKKEAAITIKPNDKRYYRADVANYSDDETTSMKITERNTFYHITGTITTLGAKSIEDAINSDNIDMLVQVVVKPWKYVVNNINM | not soluble
KLKPFNDEKTAKIAEEVQQFYESNATISLNEYLENVGELGYELYLTDGAEKSTYYGGAFRKKDLPDKTIKQVLDGETYHGIDSFDTGIFITGFFDNDVRNTIGVPVQADGKQLALFIRQDPEKQFGELRIF | soluble
MTDQGLEGSNPVDLSKHPSGIVPTLQNIVSTVNLDCKLDLKAIALQARNAEYNPKRFAAVIMRIREPKTTALIFASGKMVCTGAKSEDFSKMAARKYARIVQKLGFPAKFKDFKIQNIVGSCDVKFPIRLEGLAYSHAAFSSYEPELFPGLIYRMKVPKIVLLIFVSGKIVITGAKMRDETYKAFENIYPVLSEFRKIQQ | soluble
MAIAKTDVLKFTTEVQPIGKQQYMELSKDIFVFSYLCGGINFTDIANLTNENIQNGRLHYIRQKTKKPIKIGIPQEAMQIIEKYSKESKGYLFPILDSKIHKTALQKQNRIHKILGKVNKNLKLLAAQLGVEANLTTYVARHSFASVLKKSGVNIALISEALGHSDLATTQIYLDSFDNEQVDEAMRNLLEHHHHHH | not soluble
QNNKDEKKITKIGVLQFVSHPSLDLIYKGIQDGLAEEGYKDDQVKIDFMNSEGDQSKVATMSKQLVANGNDLVVGIATPAAQGLASATKDLPVIMAAITDPIGANLVKDLKKPGGNVTGVSDHNPAQQQVELIKALTPNVKTIGALYSSSEDNSKTQVEEFKAYAEKAGLTVETFAVPSTNEIASTVTVMTSKVDAIWVPIDNTIASGFPTVVSSNQSSKKPIYPSATAMVEVGGLASVVIDQHDLGVATGKMIVQVLKGAKPADTPVNVFSTGKSVINKKIAQELGITIPESVLKEAGQVI | not soluble
MARPLKEGLDYFPLDVDADYDDKFQLIETLHGPTGFAIMIKLFMKIYSQNFYYKWTETEQILFAKRVNVDINTLKTVVNDCIKYDLFDNNLFSEFQILTSLGVQERYFTAIGRRKKQIVVLEYLLLDRPEVINLCPKIVFANINVVNDDINAEQEELMPALSAQTKGKESKVNESKAVVSEQEKLPEKIVKEKPTTTAYKFWEENVAITGLSEFDRELLKKLISLGGNELTVHAMKKAIELNRRRMKTVDTVLRGWLDNGVKTTAEADEQEKNWNGGAKKNARAEPAKQEIKISDQYNFGATRTD | not soluble
MGSDKIHHHHHHMKAFQYAARAQRIVFGAGTIRQVGEEIDALGASSVLVLSTPEQRRLAEQVSDLLGARAIGIFDRAVMHVPVETARAACAMAFELGADSVVAIGGGSTTGLAKAIALEMSVPVLAIPTTYAGSEMTTIYGLTDAGLKRTGTDVRVLPRTVIYDPELTYLLPAAISVTSGINALAHAAEGLYAHDRNPISDLMAREGIQAMAAALPALVSERDTARLREARAQALYGAWLCGAVLGSVGVALHHKLCHTLGGSFNLPHAETHTIILPHALAYNAKAAPDAMASIAQALGADNAAQGAFDLARTTGAPLGLRQIGMREDELDKACEIALQNQYPNPRPLEAGAIRELLQNAWEGRRPV | not soluble
MGSDKIHHHHHHLSKLYPHAKNRQDSGMDRNPTLAQWQLAQELRRLRGDRKFSEVVKAARTTGGSLARWETPGDRGAVPGPAALERLLQIYGAEDQLERLLSLRKEARQPDRWQPYGLERSYRTYANIESQATSIEYYQSQIVPGIAQTEAYARAVIEATLHPSSDVDREVQARMERQRVLSKPERPDLWLIIAEGALRQQVGTSQVMADQIDRLIELSQEPGITLQVLPFTAGAHVAMRLAGFVIMSIAQHGITTVYIEGQNSGMFFTDSEDLAEYGMIFNRLRAACLDEGRPTRTLLERIARDHRRGEG | not soluble
